Among the data in publication PMC6056538 are cfp cargo copies per shell (copies per shell) values, retold here.

Assay [1] deals with T1 with SpyTag, flanked by six residue glycine-serine linkers, inserted on the lumenal side (Haliangium ochraceum | not stated). The experiment in a line: fluorescence intensity of purified shells; number of cfp cargo proteins per shell calculated from fluorescence intensity values of shells loaded in vivo and purified by CAP and anion exchange.
The target of assay [2] is T1 with SpyCatcher, flanked by six residue glycine-serine linkers, inserted on the lumenal side (Haliangium ochraceum | not stated). Described as above.

“SpyCatcher-mTurquoise2-6xHis (SpyCatcher-fused cyan fluorescent protein cargo)”: the cfp cargo copies per shell (copies per shell) in assay [1] was 58. With “SpyTag-mTurquoise2-6xHis (SpyTagged cyan fluorescent protein cargo)”, in assay [2], the cfp cargo copies per shell (copies per shell) is 73.
